Reference: US20250002593A1 (INMAGENE PTE, published 2025)
Changes are numbered by the printed parent chain. Names and notes keep the numbering of the source.

B1: 5F7 (antibody, V domains shown)
VH: EVKLVESGGGLVQPGGSLSLSCAASGFAFTDYYMNWVRQPPGKALEWLALIRNKAAGYTIYYSASVKGRFTISRDNSQSILYLQMTALRPEDSATYYCVRDMTIYDGYYVDYALDYWGQGTSVTVSS
VL: DIQMNQSPSSLSASLGDTITITCRASQNINIWLSWYQQKPGNIPKLFIYKASNLHTGVPSRFSGSGSGTDFTLTISSLQPEDIATYYCQQSQSYPLTFGAGTKLELK
notes: Mouse variable regions; also called chimeric antibody 5F7; 5F7 original molecular
B2: 9A6 (antibody, V domains shown)
VH: QVQLQQSGPGLMAPSQSLSITCTVSGFSLTSYDVSWIRQSPGKGLEWLGVIWTGGGTDYNSAFMSRLSITKDNSKSQVFLKMSSLQTDDTAIYYCVRVYYDPYYAMDYWGQGTSVTVSS
VL: DIVLTQSPAIMSASPGEKVTMTCSASSSVSSRYLHWYQQKSGASPKLWIYGTSNLASGVPARFSGSGSGTSYSLTISSVEAEDAATYYCQQYHSDPLTFGAGTKLELK
notes: Mouse variable regions; also called chimeric antibody 9A6
B3: 5F7-2a8-QA (antibody, human IgG4 S228P, kappa)
heavy: EVQLVESGGGLVKPGGSLRLSCAASGFAFGDYYMNWVRQAPGKGLEWVALIRNKAAGYTIYYSAPVKGRFTISRDDSKSTLYLQMNSLKTEDTAVYYCVRDMTIYDGYYVDYALDYWGQGTLVTVSSASTKGPSVFPLAPCSRSTSESTAALGCLVKDYFPEPVTVSWNSGALTSGVHTFPAVLQSSGLYSLSSVVTVPSSSLGTKTYTCNVDHKPSNTKVDKRVESKYGPPCPPCPAPEFLGGPSVFLFPPKPKDTLMISRTPEVTCVVVDVSQEDPEVQFNWYVDGVEVHNAKTKPREEQFNSTYRVVSVLQVLHQDWLNGKEYKCKVSNKGLPSSIEKTISKAKGQPREPQVYTLPPSQEEMTKNQVSLTCLVKGFYPSDIAVEWESNGQPENNYKTTPPVLDSDGSFFLYSRLTVDKSRWQEGNVFSCSVMHEALHAHYTQKSLSLSLGK
light: DIVMTQSPSSVSASVGDRVTITCRASRNINIWLSWYQQKPGKAPKLFIYKASNLHTGVPSRFSGSGSGTDFTLTISSLQPEDFATYYCLQSQSYPLTFGQGTKLEIKRTVAAPSVFIFPPSDEQLKSGTASVVCLLNNFYPREAKVQWKVDNALQSGNSQESVTEQDSKDSTYSLSSTLTLSKADYEKHKVYACEVTHQGLSSPVTKSFNRGEC
notes: 5F7-2a8 with T307Q/N434A in the IgG4 (S228P) Fc; also called 5F7-QA
B4: 5F7-2a8-YTE (antibody, human IgG4 S228P, kappa)
heavy: B3 heavy with M259Y, S261T, T263E, Q314T, A441N
light: B3 light
notes: 5F7-2a8 with M252Y/S254T/T256E in the IgG4 (S228P) Fc; also called 5F7-YTE

Columns and labels:
[1] = target: T1, Recombinant hIL-36R protein (Acrobio, Cat #IL2-H52H6) (human, UniProt Q9HB29 20-335); test: BLI (Gator), antibody on Protein A sensor, hIL-36R analyte; column head prints koff(1/Ms)
T1 construct: Bought soluble protein; also called recombinant human IL-36R protein
T1 sequence: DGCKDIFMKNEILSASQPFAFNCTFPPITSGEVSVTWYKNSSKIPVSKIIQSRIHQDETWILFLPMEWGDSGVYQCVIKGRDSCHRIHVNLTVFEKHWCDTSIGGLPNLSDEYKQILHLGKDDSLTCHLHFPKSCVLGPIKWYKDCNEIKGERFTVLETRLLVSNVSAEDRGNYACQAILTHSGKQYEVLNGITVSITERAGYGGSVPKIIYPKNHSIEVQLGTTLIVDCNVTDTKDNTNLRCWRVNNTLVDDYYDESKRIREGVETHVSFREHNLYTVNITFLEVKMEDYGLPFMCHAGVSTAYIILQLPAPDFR

[2] = target: T1, Recombinant hIL-36R protein (Acrobio, …); test: BLI (Gator), antibody on Protein A sensor, hIL-36R analyte
[3] = target: T2, membrane hIL-36R (human, UniProt Q9HB29 20-575); test: cell-based or functional assay
T2 sequence: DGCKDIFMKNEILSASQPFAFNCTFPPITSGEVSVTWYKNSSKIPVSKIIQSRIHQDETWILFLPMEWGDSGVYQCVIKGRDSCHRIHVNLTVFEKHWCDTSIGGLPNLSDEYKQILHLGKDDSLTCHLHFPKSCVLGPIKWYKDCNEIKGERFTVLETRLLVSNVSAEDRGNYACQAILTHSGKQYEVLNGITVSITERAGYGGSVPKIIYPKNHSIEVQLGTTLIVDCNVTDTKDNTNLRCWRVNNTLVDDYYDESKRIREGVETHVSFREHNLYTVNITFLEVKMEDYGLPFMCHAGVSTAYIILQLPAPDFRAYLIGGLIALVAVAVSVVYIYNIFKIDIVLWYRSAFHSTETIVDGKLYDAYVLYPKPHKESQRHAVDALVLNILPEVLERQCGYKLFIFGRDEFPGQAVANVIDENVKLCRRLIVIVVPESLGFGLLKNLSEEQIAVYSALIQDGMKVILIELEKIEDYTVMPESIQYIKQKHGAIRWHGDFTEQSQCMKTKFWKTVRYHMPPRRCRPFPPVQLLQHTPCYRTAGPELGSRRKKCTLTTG

[4] = target: T2, membrane hIL-36R; test: cell-based or functional assay; remark: listed apart in the source
[5] = target: T1, Recombinant hIL-36R protein (Acrobio, …); test: BLI (Gator), antibody on Protein A sensor, hIL-36R analyte; column head prints kon(1/s)
[6] = target: T3, recombinant hFcRn-his/B2M heterodimer protein (Acrobio, Cat #FCM-H82W4) (human, UniProt P55899 24-297; P61769 21-119); test: BLI (Gator) at pH 6.0, hFcRn-his/B2M on anti-his sensor, antibody analyte
T3 construct: Bought heterodimer
T3 sequence (P55899 24-297 limits assumed, chain 1 of 2): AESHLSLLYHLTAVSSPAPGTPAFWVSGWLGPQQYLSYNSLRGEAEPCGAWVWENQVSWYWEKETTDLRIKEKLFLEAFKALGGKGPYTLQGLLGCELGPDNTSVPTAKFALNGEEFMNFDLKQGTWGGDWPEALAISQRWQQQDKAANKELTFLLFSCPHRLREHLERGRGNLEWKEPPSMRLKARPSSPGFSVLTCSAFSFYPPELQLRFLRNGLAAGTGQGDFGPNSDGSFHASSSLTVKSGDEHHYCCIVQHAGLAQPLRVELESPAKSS
T3 sequence (P61769 21-119 limits assumed, chain 2 of 2): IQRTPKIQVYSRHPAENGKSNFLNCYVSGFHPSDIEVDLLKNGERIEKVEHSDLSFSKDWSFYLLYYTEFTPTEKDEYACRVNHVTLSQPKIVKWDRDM

[7] = target: T3, recombinant hFcRn-his/B2M heterodimer …; test: as above; remark: listed apart in the source

Binder	koff [1]	Kd [2]	IC50, IL-36α induced IL-36R signaling (IL36R reporter assay, luciferase) [3]	IC50, IL-36R reporter assay: inhibition of ligand induced luminescence in Jurkat-IL36R-IL1Racp-NFkB-luc cells (column printed '5F7-mus', taken as the '5F7 original molecular' of paragraph 330) [4]	kon [5]	Kd [6]	koff [6]	kon [6]	fold increase of binding affinity against 5F7-2a8-WT [7]
B1	0.000861 s⁻¹	14.6 nM	0.448 nM	0.226 µg/mL	59100 M⁻¹ s⁻¹				
B2	8.14e-07 s⁻¹	0.0205 nM	0.312 nM		39700 M⁻¹ s⁻¹				
B3						13.7 nM	0.00398 s⁻¹	290000 M⁻¹ s⁻¹	~10 fold
B4						15.4 nM	0.00277 s⁻¹	180000 M⁻¹ s⁻¹	~10 fold
